Results from patent publication US20150152166A1 (THERACLONE SCIENCES, published 2015).
Numbering of substitutions follows the chain as printed.

B1: 2N9 human anti-CMV antibody (antibody, V domains shown)
VH: QVQLVESGGGVVQPGRSLRLSCAASGFTFSSNGIHWVRQAPGKGLDWVAVISSDANDKQYADSVKGRFTISRDNSKNMVYLQMNSLRVEDTAVYFCARDGTCSGGNCYSGLIDYWGRGILVTVSS
VL: EIVLTQSPATLSLSPGERATLSCRASQSVGGYLAWYQQKPGQAPRLLIYDASIRATGIPARFSGSGSGTDFTLTISSLEPEDFAVYYCHQRSNWPPLTFGGGTKVDIKR
notes: Recombinant human IgG, gamma heavy and kappa light chain; (MDMR); If the listing entry has two more residues, the range shifts by 2; also called TCN-202; mAb C-2N9
B2: 2F10 human anti-CMV antibody (antibody, V domains shown)
VH: QVHLVESGGGVVQPGRALRLSCAATGFTFSNHGIHWVRQAPGKGLEWLAVISSDGDDDRYADSVKGRFSVSRDNSKNTVHLQMNGLRPDDTAIYFCARDGRCGEPKCYSGLPDYWGRGTLVTVSS
VL: B1 VL with E17D, I48L, I53N, V85L, H89L, S92N, N93T, D106E
notes: Recombinant human IgG, gamma heavy and kappa light chain, made by transient transfection of 293 cells; also called mAb A-2F10
B3: 5P9 human anti-CMV antibody (antibody, V domains shown)
VH: QVQLVESGGGVIQPGRSLRLSCVASKFIFSNHGIHWVRQAPGKGLEWVAVISKDGTNAHYADSVRGRFSISRDNSKDTVFLEMRSLRPEDTAVYYCAREGRCIEEKCYSGQIDYWGQGSLVTVSS
VL: B1 VL with V3L, G31R, L33M, K39R, E79Q, P80T, V85I, H89Q, N93S, D106E
notes: Recombinant human IgG, gamma heavy and kappa light chain; also called mAb E-5P9
B4: 4P12 human anti-CMV antibody (antibody, V domains shown)
VH: B3 VH with K106N
VL: B1 VL with V3L, G31R, L33M, K39R, E79Q, V85I, H89Q, N93S, D106E
notes: Recombinant human IgG, gamma heavy and kappa light chain; also called mAb D-4P12

Experiments:
[1] = biological target: T1, CMV gp116 epitope AD2 site peptide SHRANETIYNTTLKYGDTTGTNTTK (CMV (human cytomegalovirus), not fully specified); test: kinetic affinity measurement, method not stated; antigen taken as CMV gp116 AD2 peptide
T1 construct: Synthetic polypeptide corresponding to the AD2 site of gp116 (glycoprotein B); A biotinylated form was used to select B cells; also called CMV gp116 AD2 peptide
T1 peptide: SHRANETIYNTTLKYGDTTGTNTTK

[2] = biological target: T1, CMV gp116 epitope AD2 site peptide …; test: kinetic affinity measurement, method not stated; antigen taken as AD2 peptide; same value as r13, table re-sorted by koff
[3] = biological target: GPCMV gB (glycoprotein B of guinea pig CMV strain V545/82) (guinea pig cytomegalovirus); test: cell-based or functional assay
[4] = biological target: T1, CMV gp116 epitope AD2 site peptide …; test: kinetic affinity measurement, method not stated; antigen taken as AD2 peptide; same value as r8, table re-sorted by koff
[5] = biological target: T1, CMV gp116 epitope AD2 site peptide …; test: kinetic affinity measurement, method not stated; antigen taken as AD2 peptide; same value as r9, table re-sorted by koff
[6] = biological target: T1, CMV gp116 epitope AD2 site peptide …; test: kinetic affinity measurement, method not stated; antigen taken as AD2 peptide; same value as r12, table re-sorted by koff

Row | Binder | Kd [1] | koff [1] | kon [1] | Kd [2] | koff [2] | kon [2] | neutralization of GPCMV V545/82 entry into JH4 cells; highest concentration tested without effect [3] | Kd [4] | koff [4] | kon [4] | Kd [5] | koff [5] | kon [5] | Kd [6] | koff [6] | kon [6]
1 | B1 | 11.6 nM | 0.03 s⁻¹ | 2.6e+06 M⁻¹ s⁻¹ | 11.6 nM | 0.03 s⁻¹ | 2.6e+06 M⁻¹ s⁻¹ | > 300 ng/mL |  |  |  |  |  |  |  |  | 
2 | B2 | 1.98 nM | 0.00111 s⁻¹ | 562000 M⁻¹ s⁻¹ |  |  |  | > 300 ng/mL | 1.98 nM | 0.00111 s⁻¹ | 562000 M⁻¹ s⁻¹ |  |  |  |  |  | 
3 | B3 | 4.9 nM | 0.00121 s⁻¹ | 245000 M⁻¹ s⁻¹ |  |  |  | > 300 ng/mL |  |  |  | 4.9 nM | 0.00121 s⁻¹ | 245000 M⁻¹ s⁻¹ |  |  | 
4 | B4 | 10.9 nM | 0.0019 s⁻¹ | 175000 M⁻¹ s⁻¹ |  |  |  | > 300 ng/mL |  |  |  |  |  |  | 10.9 nM | 0.0019 s⁻¹ | 175000 M⁻¹ s⁻¹
